{"source": "paper PMC3859839", "binders": {"B1": {"name": "PsaO (psaBCA operator) (dsDNA)", "DNA 1": "TTCAAAAATTAACTTGACTTAATTTTTTTT", "DNA 2": "AAAAAAAATTAAGTCAAGTTAATTTTTGAA"}}, "assay_in_all_cases": "fluorescence anisotropy", "key": {"PsaR E99A": {"target": "PsaR E99A (Streptococcus pneumoniae D39, UniProt A0A0H2ZQ59 1-216, E99A)"}, "PsaR D7A": {"target": "PsaR D7A (Streptococcus pneumoniae D39, UniProt A0A0H2ZQ59 1-216, D7A)"}, "PsaR wild-type [1]": {"target": "T1, PsaR wild-type (Streptococcus pneumoniae D39, UniProt A0A0H2ZQ59 1-216)"}, "PsaR wild-type [2]": {"target": "T1, PsaR wild-type", "remark": "listed apart in the source"}, "PsaR H76A": {"target": "PsaR H76A (Streptococcus pneumoniae D39, UniProt A0A0H2ZQ59 1-216, H76A)"}, "PsaR D160A": {"target": "PsaR D160A (Streptococcus pneumoniae D39, UniProt A0A0H2ZQ59 1-216, D160A)"}, "PsaR wild-type [3]": {"target": "T1, PsaR wild-type", "remark": "listed apart in the source"}, "PsaR H125A": {"target": "PsaR H125A (Streptococcus pneumoniae D39, UniProt A0A0H2ZQ59 1-216, H125A)"}, "PsaR H76F": {"target": "PsaR H76F (Streptococcus pneumoniae D39, UniProt A0A0H2ZQ59 1-216, H76F)"}}, "note": "Where two headings read alike, the source gives them in different places."}
{"binder": "B1", "values": [{"measurement": "Ka", "setting": "PsaR E99A", "result": "9.27 ± 0.05 log10 M-1"}, {"measurement": "Ka", "setting": "PsaR D7A", "result": "7.22 ± 0.03 log10 M-1"}, {"measurement": "Ka", "setting": "PsaR wild-type [1]", "result": "8.02 ± 0.03 log10 M-1"}, {"measurement": "Ka", "setting": "PsaR wild-type [2]", "result": "10.1 ± 0.1 log10 M-1"}, {"measurement": "Ka", "setting": "PsaR H76A", "result": "9.6 ± 0.1 log10 M-1"}, {"measurement": "Ka", "setting": "PsaR D160A", "result": "9.8 ± 0.1 log10 M-1"}, {"measurement": "Ka", "setting": "PsaR wild-type [3]", "result": "10.6 ± 0.1 log10 M-1"}, {"measurement": "Ka", "setting": "PsaR H125A", "result": "10.4 ± 0.1 log10 M-1"}, {"measurement": "Ka", "setting": "PsaR H76F", "result": "8.54 ± 0.06 log10 M-1"}]}
